Results published in patent publication US20170240642A1 (ALLIGATOR BIOSCIENCE, published 2017).

Molecular target: T1, CD40hfc (R&Dsystems, USA) (human, UniProt P25942 21-193)
T1 construct: Bought reagent, amine-coupled to the Biacore chip; also called immobilized CD40 receptor; not shown: Fc part of the bought CD40hfc
Test: SPR, Biacore 3000; CD40hfc amine-coupled to chip, antibody as analyte; 37 C, pH 7.3
Experimental: The affinity measures of purified antibodies by surface plasmon resonance using the Biacore 3000 instrument was performed according to manufacturer's protocols.
The CD40hfc (R&Dsystems, USA) was immobilized to the BIAcore sensorchip, CMS, using conventional amine coupling. The anti-CD40 antibodies of the invention, (serially diluted 1/3 from 1-0.012 nM) were analysed for binding in HBS-P (GE, BR-1003-68) at a flow rate of 30 μl/min at 37° C. and pH 7.3. The association was followed for 3 minutes and the dissociation for 10 minutes. Regeneration was performed twice using 50 mM NaOH for 30 seconds. The kinetic parameters and the affinity constants were calculated using BIAevaluation 4.1 software.

T1 sequence (P25942 21-193): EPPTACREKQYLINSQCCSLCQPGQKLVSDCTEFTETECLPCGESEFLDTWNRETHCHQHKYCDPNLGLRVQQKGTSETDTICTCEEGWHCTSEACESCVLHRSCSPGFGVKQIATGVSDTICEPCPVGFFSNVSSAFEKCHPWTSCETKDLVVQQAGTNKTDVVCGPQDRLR

| koff [s⁻¹] | Binder |
| --- | --- |
| 0.00032 | Antibody clone F6 (antibody, human IgG1, lambda, V domains shown, Tested as purified antibody) VH: EVQLLESGGGLVQPGGSLRLSCAASGFTFSTYGMHWVRQAPGKGLEWLSYISGGSSYIFYADSVRGRFTISRDNSENALYLQMNSLRAEDTAVYYCARILRGGSGMDLWGQGTLVTVSS VL: QSVLTQPPSASGTPGQRVTISCTGSSSNIGAGYDVYWYQQLPGTAPKLLIYRNINRPSGVPDRFSGSKSGTSASLAISGLRSEDEADYYCAAWDGSLLGLVFGGGTKLTVLG |
| 0.00012 | Antibody clone F9 (antibody, human IgG1, lambda, V domains shown, Tested as purified antibody) VH: EVQLLESGGGLVQPGGSLRLSCAASGFTFSTYGMHWVRQAPGKGLEWLSYISGGSSYIFYADSVRGRFTISRDNSENALYLQMNSLRAEDTAVYYCARILRGGSGMDLWGQGTLVTVSS VL: QSVLTQPPSASGTPGQRVTISCTGSSSNIGAGYGVYWYQQLPGTAPKLLIYGNINRPSGVPDRFSGSKSGTSASLAISGLRSEDEADYYCAAWDGTLTGLLFGGGTKLTVLG |
